Assay results: patent US20110039770A1 (PHARMAGAP, published 2011)
Where no end group is shown, it is not given here.

T1: PKC-ε, purified isoform (UniProt Q02156 1-737)
T1 sequence (looked up): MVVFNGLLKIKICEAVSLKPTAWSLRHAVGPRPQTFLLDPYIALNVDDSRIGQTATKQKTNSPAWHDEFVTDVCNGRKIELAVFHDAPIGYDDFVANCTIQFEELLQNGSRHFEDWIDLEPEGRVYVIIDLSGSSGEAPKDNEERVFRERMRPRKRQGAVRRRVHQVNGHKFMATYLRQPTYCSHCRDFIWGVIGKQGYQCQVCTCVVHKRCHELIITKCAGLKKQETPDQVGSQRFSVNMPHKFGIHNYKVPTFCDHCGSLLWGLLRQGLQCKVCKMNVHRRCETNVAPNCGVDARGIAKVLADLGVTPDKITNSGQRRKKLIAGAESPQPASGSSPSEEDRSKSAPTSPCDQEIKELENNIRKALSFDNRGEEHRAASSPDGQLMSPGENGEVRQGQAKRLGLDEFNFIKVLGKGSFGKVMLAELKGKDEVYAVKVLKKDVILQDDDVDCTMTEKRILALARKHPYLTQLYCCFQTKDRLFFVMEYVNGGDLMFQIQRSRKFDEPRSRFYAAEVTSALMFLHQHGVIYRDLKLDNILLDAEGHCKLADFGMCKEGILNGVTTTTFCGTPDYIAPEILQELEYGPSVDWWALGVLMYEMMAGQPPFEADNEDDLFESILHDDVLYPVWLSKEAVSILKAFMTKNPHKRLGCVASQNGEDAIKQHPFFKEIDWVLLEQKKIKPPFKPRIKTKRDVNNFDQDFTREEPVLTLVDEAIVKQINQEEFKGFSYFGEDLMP

T2: PKC-ε (endogenous, IMR-32 lysate) (human, UniProt Q02156 1-737)
T2 construct: Band 1 and Band 2 (alternate splicing variants, not identified further) are kept under one molecule; the band is named in the assay field of each row; also called PKC-epsilon; PKC-ε Band 1
T2 sequence (looked up): T1 sequence (looked up)

B1: compound PKI 3 (peptide)
peptide: FRRK(adenine PNA)FRL
B2: PRE 5 (peptide)
peptide: Ac-AKGIQEVKGGKDAQNLIGISI-NH2
notes: also called peptide PRE 5
B3: PRE 3 (peptide)
peptide: Ac-AKGIQEVKGGDAQNLIGISI-NH2
notes: also called peptide PRE 3
B4: PRE 12 (peptide)
peptide: Ac-KDAQNLI-NH2
notes: Ac-KDAQNLI-NH2; also called peptide PRE 12
B5: PRE 13 (peptide)
peptide: Ac-RDAQNLI-NH2
notes: Ac-RDAQNLI-NH2; also called peptide PRE 13
B6: compound PKI 4 (peptide)
peptide: FRRCFRL

How the values were obtained:
[1] = target: T1, PKC-ε, purified isoform; assay: cell-based or functional assay
[2] = target: PKC-βI, purified isoform (UniProt P05771-1 1-671); assay: cell-based or functional assay
Chain of PKC-βI, purified isoform (P05771 whole entry, canonical isoform): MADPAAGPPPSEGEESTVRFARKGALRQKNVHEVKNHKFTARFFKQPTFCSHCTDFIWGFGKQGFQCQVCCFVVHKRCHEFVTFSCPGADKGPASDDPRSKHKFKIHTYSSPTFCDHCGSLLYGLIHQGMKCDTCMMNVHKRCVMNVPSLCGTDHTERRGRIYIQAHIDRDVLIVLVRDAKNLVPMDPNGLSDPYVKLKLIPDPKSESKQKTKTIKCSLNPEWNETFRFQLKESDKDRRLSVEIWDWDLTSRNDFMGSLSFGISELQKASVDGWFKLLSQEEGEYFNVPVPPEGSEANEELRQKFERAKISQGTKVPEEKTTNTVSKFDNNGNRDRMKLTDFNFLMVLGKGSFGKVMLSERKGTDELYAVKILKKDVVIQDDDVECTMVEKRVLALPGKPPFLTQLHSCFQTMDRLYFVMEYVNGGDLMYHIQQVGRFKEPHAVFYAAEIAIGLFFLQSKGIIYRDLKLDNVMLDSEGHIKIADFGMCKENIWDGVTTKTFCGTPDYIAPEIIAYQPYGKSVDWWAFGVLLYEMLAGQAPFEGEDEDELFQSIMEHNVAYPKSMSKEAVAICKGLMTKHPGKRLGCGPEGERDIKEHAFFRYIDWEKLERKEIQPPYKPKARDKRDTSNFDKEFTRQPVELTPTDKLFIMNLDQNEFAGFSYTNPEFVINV

[3] = target: PKC-βII, purified isoform (UniProt P05771-2 1-673); assay: cell-based or functional assay
Chain of PKC-βII, purified isoform (P05771 other isoform, or with tags, fused parts or gaps limits assumed): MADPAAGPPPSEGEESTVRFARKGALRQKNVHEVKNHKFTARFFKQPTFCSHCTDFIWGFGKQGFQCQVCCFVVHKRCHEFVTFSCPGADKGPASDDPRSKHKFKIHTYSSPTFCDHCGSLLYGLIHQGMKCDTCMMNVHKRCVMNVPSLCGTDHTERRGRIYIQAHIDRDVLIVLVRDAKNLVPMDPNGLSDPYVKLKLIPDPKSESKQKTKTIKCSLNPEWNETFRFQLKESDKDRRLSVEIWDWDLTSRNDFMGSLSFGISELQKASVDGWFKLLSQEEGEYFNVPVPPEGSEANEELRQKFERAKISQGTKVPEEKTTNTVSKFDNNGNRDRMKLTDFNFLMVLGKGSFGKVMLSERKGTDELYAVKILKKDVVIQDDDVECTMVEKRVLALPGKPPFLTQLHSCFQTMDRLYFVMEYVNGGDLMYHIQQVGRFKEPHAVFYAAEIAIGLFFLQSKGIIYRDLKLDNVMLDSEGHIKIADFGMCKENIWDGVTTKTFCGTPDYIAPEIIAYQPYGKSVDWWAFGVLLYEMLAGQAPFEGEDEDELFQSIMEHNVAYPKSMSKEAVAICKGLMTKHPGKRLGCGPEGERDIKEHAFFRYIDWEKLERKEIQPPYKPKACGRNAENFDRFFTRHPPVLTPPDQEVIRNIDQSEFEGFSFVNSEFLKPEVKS

[4] = target: PKC-α, purified isoform (UniProt P17252 1-672); assay: cell-based or functional assay
[5] = target: T3, PKC-δ (purified isoform); assay: competitive ELISA, coated purified PKC-δ, vs anti-PKC δ (SC-213); PRE 100 µM
T3 construct: also called PKC-delta
T3 sequence (Q05655 whole entry, stated change not applied, canonical isoform): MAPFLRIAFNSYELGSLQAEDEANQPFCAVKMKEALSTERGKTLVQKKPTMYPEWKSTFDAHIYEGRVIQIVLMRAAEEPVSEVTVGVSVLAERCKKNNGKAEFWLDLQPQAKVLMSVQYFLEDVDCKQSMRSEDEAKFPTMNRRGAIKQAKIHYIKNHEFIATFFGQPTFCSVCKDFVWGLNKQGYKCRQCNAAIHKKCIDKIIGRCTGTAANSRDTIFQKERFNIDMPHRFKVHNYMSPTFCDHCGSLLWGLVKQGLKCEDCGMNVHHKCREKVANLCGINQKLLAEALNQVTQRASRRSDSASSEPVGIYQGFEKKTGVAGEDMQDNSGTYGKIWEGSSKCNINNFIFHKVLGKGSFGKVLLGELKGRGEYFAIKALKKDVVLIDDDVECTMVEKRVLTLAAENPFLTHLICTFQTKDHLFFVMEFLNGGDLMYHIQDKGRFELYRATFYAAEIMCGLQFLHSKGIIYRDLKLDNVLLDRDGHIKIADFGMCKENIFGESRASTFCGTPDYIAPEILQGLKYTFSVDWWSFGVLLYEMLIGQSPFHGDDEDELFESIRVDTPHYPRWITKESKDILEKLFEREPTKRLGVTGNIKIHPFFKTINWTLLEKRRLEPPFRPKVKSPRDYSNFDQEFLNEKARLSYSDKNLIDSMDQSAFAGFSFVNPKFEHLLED
Method: (§1) Greiner 96 well ELISA plates were coated with the appropriate PKC isoform diluted in PBSN (PBS with Calcium/Magnesium+0.05% Sodium azide w/w). 50 μL/well at 250 ng/mL was used. Control wells contained PBSN only. Plates were incubated overnight at 4° C.
(§2) The plates were washed 3 times with 200 μL of dH₂O per well, then 100 μL of blocking solution was added per well and the plate incubated for 1 h at 37° C. The washing steps with dH₂O were repeated and 50 μL of the appropriate PRE solution (PRE stock solution [20 mM in DMSO] diluted in PBSN) was added and the plate incubated for 1 h at room temperature.
(§3) 50 μL of 1:1000 dilution of Alkaline Phosphatase (AP) conjugated antibody (anti-rabbit for all except zeta, which was anti-goat) was then added and the plate incubated for 1 h at room temperature. Washing with dH₂O was then repeated. Finally, 100 μL of pNPP solution in pNPP buffer (2 mM MgCl₂, 100 mM Sodium bicarbonate in water, pH 9.8) was added to all wells and incubated for 8 minutes for α, βI, βII ε, and ζ, or for 15-20 mins for δ (until sufficient coloration is observed). The reaction was stopped by addition of Stop solution (2N NaOH) and the absorbance at 405 nm was read on a Galaxy Plate reader.

[6] = target: T4, PKC-βII (purified isoform) (Homo sapiens (Human), UniProt P05771 2-621); assay: competitive ELISA, coated purified PKC-βII, vs anti-PKC βII (SC-210); PRE 100 µM
T4 construct: also called PKC-beta II; PKC beta 2
T4 sequence (P05771 other isoform, or with tags, fused parts or gaps limits assumed): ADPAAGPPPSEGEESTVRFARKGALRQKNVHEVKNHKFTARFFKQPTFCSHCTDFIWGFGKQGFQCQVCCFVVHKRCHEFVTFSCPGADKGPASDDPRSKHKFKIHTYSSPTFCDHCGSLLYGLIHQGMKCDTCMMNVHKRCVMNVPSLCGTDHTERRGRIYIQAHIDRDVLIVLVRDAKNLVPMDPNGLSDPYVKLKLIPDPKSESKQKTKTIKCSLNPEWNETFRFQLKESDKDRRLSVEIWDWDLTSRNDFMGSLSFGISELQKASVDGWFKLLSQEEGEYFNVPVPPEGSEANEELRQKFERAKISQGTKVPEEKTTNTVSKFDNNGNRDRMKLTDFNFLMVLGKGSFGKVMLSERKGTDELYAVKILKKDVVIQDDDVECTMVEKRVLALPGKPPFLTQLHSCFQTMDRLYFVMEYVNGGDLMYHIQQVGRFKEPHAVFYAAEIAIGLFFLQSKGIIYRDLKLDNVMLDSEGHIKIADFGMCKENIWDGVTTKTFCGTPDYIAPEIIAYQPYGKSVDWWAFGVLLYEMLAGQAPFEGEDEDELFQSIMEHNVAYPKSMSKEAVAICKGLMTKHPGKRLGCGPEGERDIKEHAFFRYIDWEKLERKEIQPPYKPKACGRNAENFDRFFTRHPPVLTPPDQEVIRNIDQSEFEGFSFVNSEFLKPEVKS
Method: as §1, §2, §3

[7] = target: T5, PKC-βI (purified isoform) (Homo sapiens (Human), UniProt P05771 2-671); assay: competitive ELISA, coated purified PKC-βI, vs anti-PKC βI (SC-209); PRE 50 µM
T5 construct: also called PKC-beta I; PKC beta 1
T5 sequence (P05771 2-671 limits assumed): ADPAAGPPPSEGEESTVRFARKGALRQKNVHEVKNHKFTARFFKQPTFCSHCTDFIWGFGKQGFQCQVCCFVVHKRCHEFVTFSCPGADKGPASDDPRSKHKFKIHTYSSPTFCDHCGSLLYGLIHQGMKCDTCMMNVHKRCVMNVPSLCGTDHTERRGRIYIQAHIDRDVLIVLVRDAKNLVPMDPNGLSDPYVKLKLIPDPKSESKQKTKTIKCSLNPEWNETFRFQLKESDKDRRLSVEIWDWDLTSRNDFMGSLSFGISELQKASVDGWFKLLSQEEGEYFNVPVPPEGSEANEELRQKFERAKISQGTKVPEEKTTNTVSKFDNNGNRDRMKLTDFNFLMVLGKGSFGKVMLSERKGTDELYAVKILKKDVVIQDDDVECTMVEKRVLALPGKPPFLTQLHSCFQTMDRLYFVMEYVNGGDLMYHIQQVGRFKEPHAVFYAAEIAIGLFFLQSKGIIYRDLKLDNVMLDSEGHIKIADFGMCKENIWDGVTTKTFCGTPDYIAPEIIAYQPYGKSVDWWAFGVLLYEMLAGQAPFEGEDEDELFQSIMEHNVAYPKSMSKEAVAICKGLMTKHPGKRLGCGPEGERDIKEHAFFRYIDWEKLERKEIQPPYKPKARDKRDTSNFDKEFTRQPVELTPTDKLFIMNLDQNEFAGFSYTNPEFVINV
Method: as §1, §2, §3

[8] = target: T6, PKC-α (purified isoform) (Homo sapiens (Human), UniProt P17252 2-672); assay: competitive ELISA, coated purified PKC-α, vs anti-PKC α (SC-208); PRE 50 µM
T6 construct: also called purified PKC-alpha; commercially purified PKC-alpha
Method: as §1, §2, §3

[9] = target: T3, PKC-δ (purified isoform); assay: competitive ELISA, coated purified PKC-δ, vs anti-PKC δ (SC-213); PRE 50 µM
Method: as §1, §2, §3

[10] = target: T5, PKC-βI (purified isoform); assay: competitive ELISA, coated purified PKC-βI, vs anti-PKC βI (SC-209); PRE 200 µM
Method: as §1, §2, §3

[11] = target: T5, PKC-βI (purified isoform); assay: competitive ELISA, coated purified PKC-βI, vs anti-PKC βI (SC-209); PRE 100 µM
Method: as §1, §2, §3

[12] = target: T4, PKC-βII (purified isoform); assay: competitive ELISA, coated purified PKC-βII, vs anti-PKC βII (SC-210); PRE 50 µM
Method: as §1, §2, §3

[13] = target: T4, PKC-βII (purified isoform); assay: competitive ELISA, coated purified PKC-βII, vs anti-PKC βII (SC-210); PRE 200 µM
Method: as §1, §2, §3

[14] = target: T6, PKC-α (purified isoform); assay: competitive ELISA, coated purified PKC-α, vs anti-PKC α (SC-208); PRE 100 µM
Method: as §1, §2, §3

[15] = target: T6, PKC-α (purified isoform); assay: competitive ELISA, coated purified PKC-α, vs anti-PKC α (SC-208); PRE 200 µM
Method: as §1, §2, §3

[16] = target: T3, PKC-δ (purified isoform); assay: competitive ELISA, coated purified PKC-δ, vs anti-PKC δ (SC-213); PRE 200 µM
Method: as §1, §2, §3

[17] = target: T2, PKC-ε (endogenous, IMR-32 lysate); assay: WB competition Protocol B, IMR-32 extract, vs anti-PKC-ε Ab; PKC-ε Band 1; 100 µg peptide
Method: (§4) The ability of the peptides PRE 2 and PRE 3 (see Table 4) to interfere with the binding of a PKC-α-specific polyclonal antibody (Santa Cruz Biotechnology, Inc.) to PKC-α was determined using a modified version of the protocol outlined above in which the test peptide was added directly to the cell extract prior to electrophoresis at a concentration of either 5× or 15× the concentration of the protein applied to each well of the gel for the Western blots (20 μg).
(§5) Peptides PRE 2, PRE 3 and PRE 4 (see Table 4) were tested for their ability to interfere with the binding of isoform-specific polyclonal antibodies (Santa Cruz Biotechnology, Inc.) to […] using the general protocol described in Example 3. Two bands, representing alternate splicing variants of PKC-ε, were identified on the Western blot using this anti-PKC-ε antibody.

[18] = target: T2, PKC-ε (endogenous, IMR-32 lysate); assay: WB competition Protocol B, IMR-32 extract, vs anti-PKC-ε Ab; PKC-ε Band 1; 20 µg peptide
Method: as §4, §5

[19] = target: T2, PKC-ε (endogenous, IMR-32 lysate); assay: WB competition Protocol B, IMR-32 extract, vs anti-PKC-ε Ab; PKC-ε Band 1; 50 µg peptide
Method: as §4, §5

[20] = target: T2, PKC-ε (endogenous, IMR-32 lysate); assay: WB competition Protocol B, IMR-32 extract, vs anti-PKC-ε Ab; PKC-ε Band 2; 100 µg peptide
Method: as §4, §5

[21] = target: T2, PKC-ε (endogenous, IMR-32 lysate); assay: WB competition Protocol B, IMR-32 extract, vs anti-PKC-ε Ab; PKC-ε Band 2; 20 µg peptide
Method: as §4, §5

[22] = target: T2, PKC-ε (endogenous, IMR-32 lysate); assay: WB competition Protocol B, IMR-32 extract, vs anti-PKC-ε Ab; PKC-ε Band 2; 50 µg peptide
Method: as §4, §5

Row | Binder | % Inhibition of PKC activity at 150 µM [1] | % Inhibition of PKC activity at 300 µM [1] | % Inhibition of PKC activity at 600 µM [1] | % Inhibition of PKC activity at 150 µM [2] | % Inhibition of PKC activity at 300 µM [2] | % Inhibition of PKC activity at 600 µM [2] | % Inhibition of PKC activity at 150 µM [3] | % Inhibition of PKC activity at 300 µM [3] | relative binding capacity (100-%n, DMSO subtracted) [5] | relative binding capacity (100-%n, DMSO subtracted) [6] | relative binding capacity (100-%n, DMSO subtracted) [7] | relative binding capacity (100-%n, DMSO subtracted) [8] | relative binding capacity (100-%n, DMSO subtracted) [9] | relative binding capacity (100-%n, DMSO subtracted) [10] | relative binding capacity (100-%n, DMSO subtracted) [11] | relative binding capacity (100-%n, DMSO subtracted) [12] | relative binding capacity (100-%n, DMSO subtracted) [13] | relative binding capacity (100-%n, DMSO subtracted) [14] | relative binding capacity (100-%n, DMSO subtracted) [15] | relative binding capacity (100-%n, DMSO subtracted) [16] | further results
1 | B1 | 38% | 53% | 68% | 37% | 76% | 80% | 31% | 83% |  |  |  |  |  |  |  |  |  |  |  |  | % Inhibition of PKC activity at 600 µM [3]: 81%; % Inhibition of PKC activity at 150 µM [4]: 47%; % Inhibition of PKC activity at 300 µM [4]: 51%; % Inhibition of PKC activity at 600 µM [4]: 82%
2 | B2 |  |  |  |  |  |  |  |  | 0% | 0% | 0% | 0% | 0.2% | 0% | 0% | 0% | 0% | 0% | 0% | 4.31% | 
3 | B3 |  |  |  |  |  |  |  |  | 56% |  | 26% | 17.5% | 48.3% | 23% | 22.5% |  |  | 26.5% | 22.6% | 57% | Band Intensity [17]: 0; Inhibition (%) [17]: 100%; Relative Intensity (%) [17]: 0%; Band Intensity [18]: 5.12; Inhibition (%) [18]: 99%; Relative Intensity (%) [18]: 0.12%; Band Intensity [19]: 0; Inhibition (%) [19]: 100%; Relative Intensity (%) [19]: 0%; Band Intensity [20]: 0; Inhibition (%) [20]: 100%; Relative Intensity (%) [20]: 0%; Band Intensity [21]: 0; Inhibition (%) [21]: 100%; Relative Intensity (%) [21]: 0%; Band Intensity [22]: 0; Inhibition (%) [22]: 100%; Relative Intensity (%) [22]: 0%
4 | B4 |  |  |  |  |  |  |  |  | 1.02% | 0% | 0.79% | 3.29% | 2.26% | 0% | 0% | 4.55% | 0% | 5.16% | 0% | 23.5% | 
5 | B5 |  |  |  |  |  |  |  |  | 0.79% | 1.63% | 0% | 0% | 0% | 0% | 0% | 0% | 0% | 0% | 0% | 17.9% | 
6 | B6 | 55% | 55% | 77% | 72% | 72% | 82% | 83% | 83% |  |  |  |  |  |  |  |  |  |  |  |  | % Inhibition of PKC activity at 600 µM [3]: 82%; % Inhibition of PKC activity at 150 µM [4]: 80%; % Inhibition of PKC activity at 300 µM [4]: 80%; % Inhibition of PKC activity at 600 µM [4]: 80%
